Measurements taken from patent US8476054B2, “Thrombin-like enzyme of Agkistrodon acutus” (Konruns Pharmaceutical Co., Ltd., priority 2008, dated 2013).
Entries after “also recorded” stand apart in the source; their conditions may differ.

B1: hemocoagulase (protein)
chain 1: DCSSGWSSYEGHCYKVFKQSKTWADAESFCTKQVNGGHLVSLESSGEADFVGQLLAQKLKSAKLHVWLGLRAQNKEKQCSLQWSDGSSLSYENWLEEESKKCLGVHLETGFHKWENFYCEQQDPFVCEA
chain 2: DCPSDWSSYEGHCYKPFNEPKNWADAENFCTKQHTGGHLVSFQSTEEADFVVKLAFQTFDYGLFWFGLSKLWNQCNWQWSNAAMLKYTDWAEESYCVYFKSTNNKWRSLTCRMLANFVCEFQA

How the values were obtained:
[1] = test system: hemocoagulase of Agkistrodon acutus; assay: effect of PMSF on the agglutination time of the hemocoagulase; assay type: biochemical
Method: (§1) 1% bovine fibrinogen (Sigma Company) solution was prepared with physiological saline.
(§2) The operational steps of the experiment were as follows:
(§3) (1) 2 ml 1% bovine fibrinogen solution was kept at constant temperature of 37° C. for 5 min;
(§4) (2) 3 tubes were respectively marked with 1 #, 2 #, 3 #, then 200 μl hemocoagulase solution (5 u/ml) diluted one time with distilled water was added into each of 3 tubes;
(§5) (3) 10 μl distilled water was added into tube 1#, 10 μl isopropanol was added into tube 2#, and 10 μl PMSF was added into tube 3#, and the tubes were kept at constant temperature of 37° C. in water bath for 5 min;
(§6) (4) Observations of the agglutination experiments were carried out separately in the order of the numbering of the above tubes. 200 μl 1% bovine fibrinogen solution at constant temperature was added into each of the tubes respectively, followed by counting time immediately and shaking the tube gently; then the tube was kept to stand in water bath of 37° C. The agglutination reaction was observed. When the solution was completely coagulated, time-counting was finished.

bovine fibrinogen [2] = assay: agglutination experiment, time to complete coagulation of bovine fibrinogen solution; assay type: biochemical; details: 200 μl hemocoagulase solution (5 u/ml), 200 μl 1% bovine fibrinogen, 37° C.
Method: as §1, §2, §3, §4, §5, §6

bovine fibrinogen [3] = assay: enzymatic activity assay (bovine fibrinogen assay or normal human plasma assay); assay type: biochemical; details: hemocoagulase of Example 2 further purified by HPLC
Method: The above dialyzed enzyme solution was loaded on a pre-equilibrated DEAE-Sepharose Fast Flow anion exchange chromatography column, and the column was eluted with 0.01M, pH7.4 PBS. Then, the stepwise elution was conducted with 0.01M, pH7.4 PBS containing 0.02M, 0.04M, 0.06M, 1.0M NaCl respectively, and the second eluting peak of 0.06M NaC1 eluent was collected to obtain 1,050 ml of eluent. […] The 1,050 ml eluent was ultra-filtrated to 135 ml by Millipore Pellicon 2 tangential flow ultra-filter (0.1M^2 cut off 5 k membrane). The 135 ml ultra-filtrated solution was poured into a dialysis bag and dialyzed against deionized water for 24 hours, and the deionized water was changed 3 times during the dialysis. After dialysis, the volume of the enzyme solution is 159 ml, and the determined content of the total protein in the solution is 240 mg, the determined specific activity of the enzyme is 195 u/mg protein and a final yield of 0.8%. […]
1 ml 1.0% bovine fibrinogen (Sigma company) prepared with physiological saline was added to a tube, kept at 37±0.5° C. in water bath for 3 min, followed by adding 1 ml 37±0.5° C. preheated enzymatic solution to be determined was added into the tube while counting time immediately; if white flocs appeared in the bovine fibrinogen solution by shaking it within 120±30 seconds, the activity unit of the enzymatic solution is determined to be 1 u/ml. […]

human fibrinogen = assay: hydrolyzing human fibrinogen with the hemocoagulase, SDS-PAGE; assay type: biochemical; details: for band of alpha subunit of human fibrinogen: hemocoagulase 1 unit, 37° C.
Method: A 4 mg/ml human fibrinogen solution was prepared with 50 mM Tris-HCl buffer solution(pH 7.4). 0.5 ml human fibrinogen solution were respectively added into each of 5 tubes; 1 activity unit of the purified hemocoagulase was separately added into each of 4 tubes according to 4 different time intervals of heat preservation time for hydrolyzing, and the tubes were kept at 37° C. in water bath for 4 h, 2 h, 1 h and 0.5 h, respectively; after that, SDS-PAGE was carried out immediately to observe the hydrolyzing degree of the human fibrinogen. Meanwhile, another tube containing 0.5 ml of the human fibrinogen solution was kept at 37° C. in water bath for 4 h as a control.

[4] = isoelectric focusing electrophoresis analysis; assay type: physicochemical
Method: The above dialyzed enzyme solution was loaded on a pre-equilibrated DEAE-Sepharose Fast Flow anion exchange chromatography column, and the column was eluted with 0.01M, pH7.4 PBS. Then, the stepwise elution was conducted with 0.01M, pH7.4 PBS containing 0.02M, 0.04M, 0.06M, 1.0M NaCl respectively, and the second eluting peak of 0.06M NaC1 eluent was collected to obtain 1,050 ml of eluent. […] The 1,050 ml eluent was ultra-filtrated to 135 ml by Millipore Pellicon 2 tangential flow ultra-filter (0.1M^2 cut off 5 k membrane). The 135 ml ultra-filtrated solution was poured into a dialysis bag and dialyzed against deionized water for 24 hours, and the deionized water was changed 3 times during the dialysis. After dialysis, the volume of the enzyme solution is 159 ml, and the determined content of the total protein in the solution is 240 mg, the determined specific activity of the enzyme is 195 u/mg protein and a final yield of 0.8%. The protein has a HPLC purity of 98.2%, and two protein bands were shown by reduced SDS-PAGE with the molecular weight of about 15 kDa and 14.5 kDa, respectively. The enzyme has an isoelectric point(pI) of 5.5 by isoelectric focusing electrophoresis analysis.

| Molecule | Agglutination time ([1]; 10 μl PMSF (4 mg/ml in isopropanol), 200 μl hemocoagulase solution (5 u/ml), 200 μl 1% bovine fibrinogen, 37° C.) [s] | inhibition of the activity of the hemocoagulase ([1]; 100 ppm PMSF) | Agglutination time (bovine fibrinogen [2]; 10 μl distilled water) [s] | Agglutination time (bovine fibrinogen [2]; 10 μl isopropanol) [s] | enzyme activity of the solution (bovine fibrinogen [3]) [u/ml] | hydrolysis of the alpha chain (alpha subunit) of human fibrinogen (human fibrinogen) | band of alpha subunit of human fibrinogen (human fibrinogen; treated for 0.5 h and 1 h) | band of alpha subunit of human fibrinogen (human fibrinogen; treated for 2 h and 4 h) | isoelectric point (pI) [4] |
| --- | --- | --- | --- | --- | --- | --- | --- | --- | --- |
| O=S(=O)(F)Cc1ccccc1 [PMSF, Phenylmethanesulfonyl fluoride] | > 600 | completely inhibits |  |  |  |  |  |  |  |
| B1 |  |  | 50 | 50 | 10 | able to hydrolyze the alpha chain of human fibrinogen; also recorded: has the function of hydrolyzing the alpha subunit of the human fibrinogen | became gradually light | disappeared completely | 5.5 |
